{"source": "patent US12187807B2", "about": "“Antibody molecules to C5AR1 and uses thereof” (Visterra, Inc., priority 2020, dated 2025)", "molecules": {"B1": {"name": "clone 329: anti-C5aR1 Site II antibody; VH SEQ ID NO: 492, VL SEQ ID NO: 552 (antibody, V domains shown)", "VH": "QVQLQQSGAELTKPGASVKLSCKASGYTFTNYWMHWVKQRPGQGLEWIGYLNPSSGYTKYNQKFKDKATLTADKSSSTAYMQLNSLTYEDSAVYYCTRSGGDNYGNPYYFDRWGQGTTVTVSS", "VL": "DVVMTQTPLSLTVSLGDQASISCRSSQSLVHSNGNTYLHWYLQKPGQSPKFLIYKVSNRFSGVPDRFSGSGSGTDFRLKISRVEAEDLGVYFCSQSTLVPLTFGAGTKLEIK"}, "B2": {"name": "clone 583: anti-C5aR1 Site I antibody; VH SEQ ID NO: 536, VL SEQ ID NO: 595 (antibody, V domains shown)", "VH": "EVQLVESGGGLVKPGGSLKLSCAASGFTFNAYAMSWVRQTPEKRLEWVASISTGGNTYCPDSVKDRFTVSRDNVRNILYLQMSSLRSEDTAMYYCTRGYQRFSGFAYWGQGTLVTVS", "VL": "DVVMTQTPLSPPVSLGYQASISCRSSQSLVHSNGNTYLNWYLQKPGQSPKLLIYKVSNRLSGVPDRFSGSGSGTDFTLKISRVETEDLGVYFCSQSTHVPYTFGGGTKLEIK"}, "B3": {"name": "clone 66: anti-C5aR1 Site I antibody; VH SEQ ID NO: 483, VL SEQ ID NO: 543 (antibody, V domains shown)", "VH": "QVQLQQSDAELVKPGASVKISCKASGYTFIDHAIHWVKQRPEQGLEWIGYISPGNGEIKYNEKFKAKATLTADKSSSAAYMQLNSLTSADSAVYFCKRALFYYTGKYQPMDYWGQGTTVTDSS", "VL": "DIVMTQSQKFMSTTAGDRVSITCKASQNVGSAVVWYQQKPGRSPKLLIYSSSIRYTGVPDRFTGSGSGTDFTLTINSVQSEDLADYFCQQYNSFPLTFGAGTKLEIK"}}, "assay_in_all_cases": "Alanine scanning / mutagenesis epitope mapping of C5aR1", "type_in_all_cases": "binding", "key": {"[1]": {"biological_target": "T1, C5aR1 mutants (N-terminus, ECL1, ECL2, ECL3) (Homo sapiens, UniProt P21730, E179A/K279N)", "T1 sequence (P21730 with tags, fused parts or gaps E179A/K279N)": "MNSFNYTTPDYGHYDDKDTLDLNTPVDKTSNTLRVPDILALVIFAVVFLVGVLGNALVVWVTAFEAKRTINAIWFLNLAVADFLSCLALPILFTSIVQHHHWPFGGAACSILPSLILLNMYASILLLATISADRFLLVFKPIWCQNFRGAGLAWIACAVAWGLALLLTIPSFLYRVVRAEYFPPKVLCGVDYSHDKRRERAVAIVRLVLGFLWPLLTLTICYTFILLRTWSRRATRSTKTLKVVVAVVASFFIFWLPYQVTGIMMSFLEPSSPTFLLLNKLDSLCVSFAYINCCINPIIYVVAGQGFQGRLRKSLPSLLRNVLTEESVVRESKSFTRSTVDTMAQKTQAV", "conditions": "E179A", "text": "(§1) FIG. 5A is a diagram showing the results of alanine scanning mutations of site I interaction with mab 583. The N-terminal amino acid sequence of C5aR1 is listed across the top of the figure. Glycosylation sites are indicated by rectangle boxes. The only natural glycosylation site is at position N5. The other sites were introduced by mutagenesis. Mutations that abolished clone 583 binding are circled. The sulfated tyrosines at positions 11 and 14 are marked with a star sign. FIG. 5B is a diagram showing results of alanine scanning mutations of site I interaction with mab 66. Mutations that abolished clone 66 binding are circled. The sulfated tyrosines at positions 11 and 14 are marked with a star sign.\n(§2) Ala substitutions of T8 & D10 moderately reduces its affinity while Y11 & D15 abolishes mAb binding. […] N-glycosylation of at N17 or D17P also abolishes mAb binding. N5 glycan is tolerated but a tandem glycosylation (N5 & N17) is not tolerated. mAb core epitopes are T8-G12 but nature of AA present in D15-D18 influence its binding. […] The core epitope appears to be located near T8-G12, with additional contributions from D15-D18.\n(§3) Clone 66 was previously characterized as a site I binder and its binding is dependent on tyrosine sulfation at positions 11Y and/or 14Y. […] It should be noted that the only the only non-human species to retain clone 66 binding was baboon, which is the only NHP that retains the DYGHY motif.\n(§4) However, it was unknown if additional contacts were made with ECL1 or ECL3. […] The data is highlighted in FIG. 5C-5E.\n(§5) The core epitope of clone 11 is from E180-P183; the core epitope of clone 329 is from E180-P184; and the core epitope of clone 336 is from R178-P183. […] The data for clones 11, 329, and 336 is highlighted in FIG. 5F."}, "[2]": {"biological_target": "T2, C5aR1 mutants (N-terminus, ECL1, ECL2, ECL3) (Homo sapiens, UniProt P21730, K279N/Y11A)", "T2 sequence (P21730 with tags, fused parts or gaps Y11A/K279N)": "T1 sequence (P21730 with tags, fused parts or gaps E179A/K279N) with Y11A, A179E", "conditions": "Y11A", "text": "as §1, §2, §3, §4, §5"}, "[3]": {"biological_target": "T3, C5aR1 mutants (N-terminus, ECL1, ECL2, ECL3) (Homo sapiens, UniProt P21730, K17N/K279N)", "T3 sequence (P21730 with tags, fused parts or gaps K17N/K279N)": "T1 sequence (P21730 with tags, fused parts or gaps E179A/K279N) with K17N, A179E", "conditions": "insertion of a glycan at K17N", "text": "as §1, §2, §3, §4, §5"}, "[4]": {"biological_target": "T4, C5aR1 mutants (N-terminus, ECL1, ECL2, ECL3) (Homo sapiens, UniProt P21730, K279N/Y14F)", "T4 sequence (P21730 with tags, fused parts or gaps Y14F/K279N)": "T1 sequence (P21730 with tags, fused parts or gaps E179A/K279N) with Y14F, A179E", "conditions": "Y14F", "text": "as §1, §2, §3, §4, §5"}, "[5]": {"biological_target": "T5, C5aR1 mutants (N-terminus, ECL1, ECL2, ECL3) (Homo sapiens, UniProt P21730, G12E/K279N)", "T5 sequence (P21730 with tags, fused parts or gaps G12E/K279N)": "T1 sequence (P21730 with tags, fused parts or gaps E179A/K279N) with G12E, A179E", "conditions": "G12E (as in cyno and rhesus)", "text": "as §1, §2, §3, §4, §5"}}, "note": "Where a chain is given by its changes, count along the chain named."}
{"molecule": "B1", "values": [{"measurement": "binding to C5aR1 mutant", "setting": "[1]", "result": "did not reduce antibody affinity"}]}
{"molecule": "B2", "values": [{"measurement": "binding to C5aR1 mutant", "setting": "[2]", "result": "abolishes binding"}, {"measurement": "binding to C5aR1 mutant", "setting": "[3]", "result": "abolishes binding"}]}
{"molecule": "B3", "values": [{"measurement": "binding to C5aR1 mutant", "setting": "[4]", "result": "abolished binding"}, {"measurement": "binding to C5aR1 mutant", "setting": "[5]", "result": "abolishes binding"}]}
